Assays:
Test in all cases: peptide ELISA on streptavidin plate, 2 µg/mL 2H7-hFc, anti-hFc HRP
[1] = target: T1, TfR1 peptide D2-loop1-loop2 (human)
T1 construct: Synthetic peptide, captured on a streptavidin-coated plate; also called peptide No. 15
T1 peptide: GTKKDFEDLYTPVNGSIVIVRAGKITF
Method: (§1) The peptide-antibody binding was identified using a standard enzyme-linked immunosorbent assay (ELISA). The steps were as follows: [0244] (1) The wells of an ELISA plate were coated with 100 μL of 2 μg/mL SA (streptavidin) protein at 4° C. overnight. […] (2) The wells of the ELISA plate were washed with PBST buffer. After adding 200 μL of 2% BSA, the plate was blocked at 37° C. for 1 h. […] (3) The peptide protein was diluted to 2 μg/mL, and a negative control and a positive control (AVI-tagged TfR1 protein) were included. Each experiment contained duplicate controls. […] (4) The wells of the ELISA plate were washed multiple times with PBST buffer. Then, 100 μL of the diluted peptide protein solution from step (3) was added into wells in duplicate, and along with the negative control wells, incubated at 37° C. for 1 h. [0248] (5) The wells of the ELISA plate were washed multiple times with PBST buffer. […] [0249] (6) The wells of the ELISA plate were washed multiple times with PBST buffer. Then, 100 μL of 2× anti-hFc HRP secondary antibody was added, and the plate was incubated at 37° C. for 1 h. [0250] (7) The wells of the ELISA plate were washed multiple times with PBST buffer. After adding 100 μL of TMB chromogenic solution, the reaction was carried out in the dark at room temperature for 30 min. [0251] (8) 100 μL of stop solution (1 mol/L HCl) was added to terminate the reaction. OD450 was measured using a microplate reader, and the readings were recorded.

[2] = target: T2, TfR1 peptide D2-loop3-K (human)
T2 construct: Synthetic peptide, captured on a streptavidin-coated plate; also called peptide No. 14
T2 peptide: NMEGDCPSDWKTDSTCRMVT
Method: as §1

[3] = target: T3, TfR1 peptide D1-helix3-helix4 (human)
T3 construct: Synthetic peptide, captured on a streptavidin-coated plate; also called peptide No. 19
T3 peptide: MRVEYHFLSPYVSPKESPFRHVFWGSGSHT
Method: as §1

[4] = target: T4, TfR1 peptide D1-helix4 (human)
T4 construct: Synthetic peptide, captured on a streptavidin-coated plate; also called peptide No. 3
T4 peptide: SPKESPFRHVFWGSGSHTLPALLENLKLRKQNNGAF
Method: as §1

[5] = target: T5, TfR1 peptide D1-helix1 (human)
T5 construct: Synthetic peptide, captured on a streptavidin-coated plate; also called peptide No. 1
T5 peptide: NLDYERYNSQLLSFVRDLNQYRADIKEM
Method: as §1

[6] = target: T6, TfR1 peptide D3-helix2-helix3 (human)
T6 construct: Synthetic peptide, captured on a streptavidin-coated plate; also called peptide No. 9
T6 peptide: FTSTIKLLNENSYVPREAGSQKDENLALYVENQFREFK
Method: as §1

[7] = target: T7, TfR1 peptide D2-loop1-K (human)
T7 construct: Synthetic peptide, captured on a streptavidin-coated plate; also called peptide No. 13
T7 peptide: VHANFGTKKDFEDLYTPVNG
Method: as §1

[8] = target: T8, TfR1 peptide D2-loop1 (human)
T8 construct: Synthetic peptide, captured on a streptavidin-coated plate; also called peptide No. 12
T8 peptide: GTKKDFEDLY
Method: as §1

[9] = target: T9, TfR1 peptide D3-helix3-loop1 (human)
T9 construct: Synthetic peptide, captured on a streptavidin-coated plate; also called peptide No. 10
T9 peptide: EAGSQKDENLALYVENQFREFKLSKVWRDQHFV
Method: as §1

[10] = target: T10, TfR1 peptide D1-helix3 (human)
T10 construct: Synthetic peptide, captured on a streptavidin-coated plate; also called peptide No. 16
T10 peptide: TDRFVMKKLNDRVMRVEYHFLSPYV
Method: as §1

[11] = target: T11, TfR1 peptide D1-helix5 (human)
T11 construct: Synthetic peptide, captured on a streptavidin-coated plate; also called peptide No. 17
T11 peptide: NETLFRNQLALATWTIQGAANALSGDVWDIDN
Method: as §1

[12] = target: T12, TfR1 peptide D1-helix2-helix3 (human)
T12 construct: Synthetic peptide, captured on a streptavidin-coated plate; also called peptide No. 4
T12 peptide: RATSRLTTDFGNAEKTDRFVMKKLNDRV
Method: as §1

[13] = target: T13, TfR1 peptide D3-helix2 (human)
T13 construct: Synthetic peptide, captured on a streptavidin-coated plate; also called peptide No. 6
T13 peptide: FTSTIKLLNENSYV
Method: as §1

[14] = target: T14, TfR1 peptide D3-helix1 (human)
T14 construct: Synthetic peptide, captured on a streptavidin-coated plate; also called peptide No. 5
T14 peptide: RLYWDDLKRKLSEKLDSTD
Method: as §1

OD450 [1]: 1.12
P/N [1]: 6.4
OD450 [2]: 0.217
OD450 [3]: 0.508
P/N [3]: 4.7
OD450 [4]: 1.49
P/N [4]: 9.5
OD450 [5]: 0.21
OD450 [6]: 0.247
OD450 [7]: 0.195
OD450 [8]: 0.176
OD450 [9]: 0.229
OD450 [10]: 0.974
P/N [10]: 5
OD450 [11]: 0.206
OD450 [12]: 0.19
OD450 [13]: 0.17
OD450 [14]: 0.147
B1: anti-humanized TfR1 single-domain antibody-Fc fusion antibody 2H7-hFC1 (Fc fusion)
chain (part 1 of 2): ESGGGLVQPGESLRLSCVASGSIWSIYTMGWYRQAPGKQRDFVASITGDSTRTLESVKDRFIISRDNTKNTLYLQMNSLKPEDTAVYYCQAITSLGEYWGQGTQVTVSS
notes: Expressed in 293F cells, Protein A purified; labelled with pHrodo iFL Green in the internalization assays; also called VHH-hFc; not shown: human IgG1 Fc: hinge, CH2 and CH3 regions, from vector RJK-V4-hFC1; limits and junction (multiple cloning site) not stat
